Reference: patent publication US10941182 (Amgen, dated 2021)
Starred links: 1 amine or outer side, 2 acyl side, 3 side chain; linkers in the order of their positions; H or OH if unused. Non-standard residues stand in square brackets, D forms with d. *: point of attachment. NPipG = 2-(piperidin-4-ylamino)acetic acid, O=C(CN(C1CCN([*:3])CC1)[*:1])[*:2]; AC4Abu = α-carboxy-4-aminobutyric acid, O=C(C(CCN[*:1])C(=O)[*:3])[*:2]; Oic = O=C(O)[C@@H]1C[C@@H]2CCCC[C@@H]2N1; Phe(4-Cl) = N[C@@H](Cc1ccc(Cl)cc1)C(=O)O; γGlu = O=C(O)[C@H](CCC(=O)[*:2])N[*:1]; d(β3hF) = N[C@@H](CC(=O)O)Cc1ccccc1; NMeR = CN[C@@H](CCCNC(=N)N)C(=O)O; Palmitoyl = CCCCCCCCCCCCCCCC(=O)*; β3hF = N[C@H](CC(=O)O)Cc1ccccc1; Cha = N[C@@H](CC1CCCCC1)C(=O)O; αMeP = C[C@@]1(C(=O)O)CCCN1; β3hP = O=C(O)C[C@@H]1CCCN1; Nle = CCCC[C@H](N)C(=O)O; AEEA = NCCOCCOCC(=O)O; Aib = CC(C)(N)C(=O)O; Inp = O=C(O)C1CCNCC1; Nip = nipecotic acid; βAla = NCCC(=O)O; Sar = CNCC(=O)O

B1: SEQ ID NO: 613 (peptide)
peptide: Palmitoyl-[γGlu][AEEA][AEEA][dQ]RP[NMeR][Cha]SHKG[β3hP][Nle][Phe(4-Cl)]-OH
SMILES: CCCCCCCCCCCCCCCC(=O)N[C@@H](CCC(=O)NCCOCCOCC(=O)NCCOCCOCC(=O)N[C@H](CCC(N)=O)C(=O)N[C@@H](CCCNC(=N)N)C(=O)N1CCC[C@H]1C(=O)N(C)[C@@H](CCCNC(=N)N)C(=O)N[C@@H](CC1CCCCC1)C(=O)N[C@@H](CO)C(=O)N[C@@H](Cc1c[nH]cn1)C(=O)N[C@@H](CCCCN)C(=O)NCC(=O)N1CCC[C@H]1CC(=O)N[C@@H](CCCC)C(=O)N[C@@H](Cc1ccc(Cl)cc1)C(=O)O)C(=O)O
B2: SEQ ID NO: 583 (peptide)
peptide: Palmitoyl-[AC4Abu][AEEA][AEEA][dQ]RP[NMeR][Cha]SHKG[Inp][Nle][Aib][Phe(4-Cl)]-OH
SMILES: CCCCCCCCCCCCCCCC(=O)NCCC(C(=O)O)C(=O)NCCOCCOCC(=O)NCCOCCOCC(=O)N[C@H](CCC(N)=O)C(=O)N[C@@H](CCCNC(=N)N)C(=O)N1CCC[C@H]1C(=O)N(C)[C@@H](CCCNC(=N)N)C(=O)N[C@@H](CC1CCCCC1)C(=O)N[C@@H](CO)C(=O)N[C@@H](Cc1c[nH]cn1)C(=O)N[C@@H](CCCCN)C(=O)NCC(=O)N1CCC(C(=O)N[C@@H](CCCC)C(=O)NC(C)(C)C(=O)N[C@@H](Cc2ccc(Cl)cc2)C(=O)O)CC1
B3: SEQ ID NO: 569 (peptide)
peptide: Palmitoyl-[AC4Abu][AEEA][AEEA][dQ]RP[NMeR][Cha]SHKG[Oic][Nle][Aib][d(β3hF)]-OH
SMILES: CCCCCCCCCCCCCCCC(=O)NCCC(C(=O)O)C(=O)NCCOCCOCC(=O)NCCOCCOCC(=O)N[C@H](CCC(N)=O)C(=O)N[C@@H](CCCNC(=N)N)C(=O)N1CCC[C@H]1C(=O)N(C)[C@@H](CCCNC(=N)N)C(=O)N[C@@H](CC1CCCCC1)C(=O)N[C@@H](CO)C(=O)N[C@@H](Cc1c[nH]cn1)C(=O)N[C@@H](CCCCN)C(=O)NCC(=O)N1[C@H](C(=O)N[C@@H](CCCC)C(=O)NC(C)(C)C(=O)N[C@@H](CC(=O)O)Cc2ccccc2)C[C@@H]2CCCC[C@@H]21
B4: SEQ ID NO: 573 (peptide)
peptide: Palmitoyl-[AC4Abu][AEEA][AEEA][dQ]RP[NMeR][Cha]SHKG[Oic][Nle][d(β3hF)]-OH
SMILES: CCCCCCCCCCCCCCCC(=O)NCCC(C(=O)O)C(=O)NCCOCCOCC(=O)NCCOCCOCC(=O)N[C@H](CCC(N)=O)C(=O)N[C@@H](CCCNC(=N)N)C(=O)N1CCC[C@H]1C(=O)N(C)[C@@H](CCCNC(=N)N)C(=O)N[C@@H](CC1CCCCC1)C(=O)N[C@@H](CO)C(=O)N[C@@H](Cc1c[nH]cn1)C(=O)N[C@@H](CCCCN)C(=O)NCC(=O)N1[C@H](C(=O)N[C@@H](CCCC)C(=O)N[C@@H](CC(=O)O)Cc2ccccc2)C[C@@H]2CCCC[C@@H]21
B5: SEQ ID NO: 567 (peptide)
peptide: Palmitoyl-[AC4Abu][AEEA][AEEA][dQ]RP[NMeR][Cha]SHKG[Oic][Nle]P[d(β3hF)]-OH
SMILES: CCCCCCCCCCCCCCCC(=O)NCCC(C(=O)O)C(=O)NCCOCCOCC(=O)NCCOCCOCC(=O)N[C@H](CCC(N)=O)C(=O)N[C@@H](CCCNC(=N)N)C(=O)N1CCC[C@H]1C(=O)N(C)[C@@H](CCCNC(=N)N)C(=O)N[C@@H](CC1CCCCC1)C(=O)N[C@@H](CO)C(=O)N[C@@H](Cc1c[nH]cn1)C(=O)N[C@@H](CCCCN)C(=O)NCC(=O)N1[C@H](C(=O)N[C@@H](CCCC)C(=O)N2CCC[C@H]2C(=O)N[C@@H](CC(=O)O)Cc2ccccc2)C[C@@H]2CCCC[C@@H]21
B6: SEQ ID NO: 572 (peptide)
peptide: Palmitoyl-[AC4Abu][AEEA][AEEA][dQ]RP[NMeR][Cha]SHKG[Oic][Nle][βAla][d(β3hF)]-OH
SMILES: CCCCCCCCCCCCCCCC(=O)NCCC(C(=O)O)C(=O)NCCOCCOCC(=O)NCCOCCOCC(=O)N[C@H](CCC(N)=O)C(=O)N[C@@H](CCCNC(=N)N)C(=O)N1CCC[C@H]1C(=O)N(C)[C@@H](CCCNC(=N)N)C(=O)N[C@@H](CC1CCCCC1)C(=O)N[C@@H](CO)C(=O)N[C@@H](Cc1c[nH]cn1)C(=O)N[C@@H](CCCCN)C(=O)NCC(=O)N1[C@H](C(=O)N[C@@H](CCCC)C(=O)NCCC(=O)N[C@@H](CC(=O)O)Cc2ccccc2)C[C@@H]2CCCC[C@@H]21
B7: SEQ ID NO: 570 (peptide)
peptide: Palmitoyl-[AC4Abu][AEEA][AEEA][dQ]RP[NMeR][Cha]SHKG[Oic][Nle][αMeP][d(β3hF)]-OH
SMILES: CCCCCCCCCCCCCCCC(=O)NCCC(C(=O)O)C(=O)NCCOCCOCC(=O)NCCOCCOCC(=O)N[C@H](CCC(N)=O)C(=O)N[C@@H](CCCNC(=N)N)C(=O)N1CCC[C@H]1C(=O)N(C)[C@@H](CCCNC(=N)N)C(=O)N[C@@H](CC1CCCCC1)C(=O)N[C@@H](CO)C(=O)N[C@@H](Cc1c[nH]cn1)C(=O)N[C@@H](CCCCN)C(=O)NCC(=O)N1[C@H](C(=O)N[C@@H](CCCC)C(=O)N2CCC[C@@]2(C)C(=O)N[C@@H](CC(=O)O)Cc2ccccc2)C[C@@H]2CCCC[C@@H]21
B8: SEQ ID NO: 571 (peptide)
peptide: Palmitoyl-[AC4Abu][AEEA][AEEA][dQ]RP[NMeR][Cha]SHKG[Oic][Nle][β3hP][d(β3hF)]-OH
SMILES: CCCCCCCCCCCCCCCC(=O)NCCC(C(=O)O)C(=O)NCCOCCOCC(=O)NCCOCCOCC(=O)N[C@H](CCC(N)=O)C(=O)N[C@@H](CCCNC(=N)N)C(=O)N1CCC[C@H]1C(=O)N(C)[C@@H](CCCNC(=N)N)C(=O)N[C@@H](CC1CCCCC1)C(=O)N[C@@H](CO)C(=O)N[C@@H](Cc1c[nH]cn1)C(=O)N[C@@H](CCCCN)C(=O)NCC(=O)N1[C@H](C(=O)N[C@@H](CCCC)C(=O)N2CCC[C@H]2CC(=O)N[C@@H](CC(=O)O)Cc2ccccc2)C[C@@H]2CCCC[C@@H]21
B9: SEQ ID NO: 575 (peptide)
peptide: Palmitoyl-[AC4Abu][AEEA][AEEA][dQ]RP[NMeR][Cha]SHKG[Oic][Nle]P[β3hF]-OH
SMILES: CCCCCCCCCCCCCCCC(=O)NCCC(C(=O)O)C(=O)NCCOCCOCC(=O)NCCOCCOCC(=O)N[C@H](CCC(N)=O)C(=O)N[C@@H](CCCNC(=N)N)C(=O)N1CCC[C@H]1C(=O)N(C)[C@@H](CCCNC(=N)N)C(=O)N[C@@H](CC1CCCCC1)C(=O)N[C@@H](CO)C(=O)N[C@@H](Cc1c[nH]cn1)C(=O)N[C@@H](CCCCN)C(=O)NCC(=O)N1[C@H](C(=O)N[C@@H](CCCC)C(=O)N2CCC[C@H]2C(=O)N[C@H](CC(=O)O)Cc2ccccc2)C[C@@H]2CCCC[C@@H]21
B10: SEQ ID NO: 626 (peptide)
peptide: Palmitoyl-[γGlu][AEEA][AEEA][dQ]RP[NMeR][Cha]SHK[Sar][Oic][Nle][β3hP][d(β3hF)]-OH
SMILES: CCCCCCCCCCCCCCCC(=O)N[C@@H](CCC(=O)NCCOCCOCC(=O)NCCOCCOCC(=O)N[C@H](CCC(N)=O)C(=O)N[C@@H](CCCNC(=N)N)C(=O)N1CCC[C@H]1C(=O)N(C)[C@@H](CCCNC(=N)N)C(=O)N[C@@H](CC1CCCCC1)C(=O)N[C@@H](CO)C(=O)N[C@@H](Cc1c[nH]cn1)C(=O)N[C@@H](CCCCN)C(=O)N(C)CC(=O)N1[C@H](C(=O)N[C@@H](CCCC)C(=O)N2CCC[C@H]2CC(=O)N[C@@H](CC(=O)O)Cc2ccccc2)C[C@@H]2CCCC[C@@H]21)C(=O)O
B11: SEQ ID NO: 633 (peptide)
peptide: Palmitoyl-[γGlu][AEEA][AEEA][dQ]RP[NMeR][Cha]SH[NPipG]G[Oic][Nle][β3hP][d(β3hF)]-OH
SMILES: CCCCCCCCCCCCCCCC(=O)N[C@@H](CCC(=O)NCCOCCOCC(=O)NCCOCCOCC(=O)N[C@H](CCC(N)=O)C(=O)N[C@@H](CCCNC(=N)N)C(=O)N1CCC[C@H]1C(=O)N(C)[C@@H](CCCNC(=N)N)C(=O)N[C@@H](CC1CCCCC1)C(=O)N[C@@H](CO)C(=O)N[C@@H](Cc1c[nH]cn1)C(=O)N(CC(=O)NCC(=O)N1[C@H](C(=O)N[C@@H](CCCC)C(=O)N2CCC[C@H]2CC(=O)N[C@@H](CC(=O)O)Cc2ccccc2)C[C@@H]2CCCC[C@@H]21)C1CCNCC1)C(=O)O

Tests used:
human APJ receptor = biological target: T1, human APJ receptor (human, UniProt P35414 1-380); assay: cell-based or functional assay
T1 sequence (looked up): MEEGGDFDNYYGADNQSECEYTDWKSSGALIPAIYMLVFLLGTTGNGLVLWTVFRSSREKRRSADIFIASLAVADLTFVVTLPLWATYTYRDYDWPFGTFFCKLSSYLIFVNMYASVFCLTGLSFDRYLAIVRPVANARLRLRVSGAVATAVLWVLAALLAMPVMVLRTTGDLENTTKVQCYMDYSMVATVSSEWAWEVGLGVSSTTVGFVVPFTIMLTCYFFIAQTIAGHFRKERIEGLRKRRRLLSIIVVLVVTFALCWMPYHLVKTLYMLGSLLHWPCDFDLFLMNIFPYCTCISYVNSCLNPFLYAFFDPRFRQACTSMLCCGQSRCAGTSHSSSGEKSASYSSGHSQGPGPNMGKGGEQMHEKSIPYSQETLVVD

rat APJ receptor = biological target: T2, rat APJ receptor (rat, UniProt Q9JHG3 1-377); assay: cell-based or functional assay
T2 sequence (looked up): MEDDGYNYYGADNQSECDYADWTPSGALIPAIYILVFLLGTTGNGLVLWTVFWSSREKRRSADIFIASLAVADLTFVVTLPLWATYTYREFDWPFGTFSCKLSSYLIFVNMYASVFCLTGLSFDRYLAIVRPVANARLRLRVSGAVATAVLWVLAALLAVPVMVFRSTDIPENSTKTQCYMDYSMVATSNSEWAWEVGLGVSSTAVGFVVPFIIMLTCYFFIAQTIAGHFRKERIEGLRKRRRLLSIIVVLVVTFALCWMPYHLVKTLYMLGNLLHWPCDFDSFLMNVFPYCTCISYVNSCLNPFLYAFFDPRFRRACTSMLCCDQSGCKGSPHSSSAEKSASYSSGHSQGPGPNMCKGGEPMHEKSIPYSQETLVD

Binder	EC50 Human APJ Receptor (human APJ receptor) [nM]	EC50 Rat APJ Receptor (rat APJ receptor) [µM]
B1	1.66	0.0388
B2	5.96	0.0492
B3	1	0.000991
Palmitoyl-[AC4Abu][AEEA][AEEA][dQ]RP[NMeR][Cha]SHKG[Nip][Nle][Aib][Phe(4-Cl)]-OH [SEQ ID NO: 582]	8.5	0.0293
B4	2.17	0.00424
B5	5.15	0.00889
B6	1.1	0.00768
B7	8.01	0.0198
B8	1.49	0.00481
B9	3.58	0.0141
B10	12.2	0.0246
B11	10.7	> 4.17
